How the values were obtained:
[1] = system: synovial fluid cells from RA patients; assay: Apoptosis induction, annexin V/PI flow cytometry, synovial fluid cells; assay type: cell-based, human; details: for total cell population in the apoptotic area: untreated control 19%
Experimental: (§1) The assay was performed by Phosphatidyl Serine Detection Kit (IOP-116F FITC-conjugated, IQ Products, The Netherlands) using the manufacturer instructions. Human fibroblast cells from OA patients, synovial fluid cells and PBLs from RA and other arthritic patients were incubated with increasing concentrations of galectin-8 variants 1 and 2 (50-2000 ng/ml). Specific binding of annexin V was performed by the incubation of cells for 20 minutes on ice in a binding calcium buffer containing a saturating concentration of annexin V-fluorescein isothiocyanate (FITC) and propdium iodide (PI). After incubation, the cells were pelleted, and analyzed in FACS analyzer (Beckton Dickinson, San Jose, Calif.). Annexin V^+/PI^+ cells were defined as necrotic, while annexin V^+/PI^− cells were defined as apoptotic. The percent of the apoptotic cells of the total cells was determined.

[2] = system: synovial fluid cells of arthritic patients; assay: Flow cytometry of recombinant galectin-8 binding to synovial fluid cells (anti-galectin-8 immunostaining); assay type: cell-based, human; details: 1 μM added to synovial fluid cells
Experimental: (§2) Peripheral white blood cells and the total cell population from synovial fluids of arthritic patients were isolated (approximately 10^7 cells) on a Ficoll gradient (Robbins Scientific Corporation, Sunngvale, Calif., USA) and analyzed by flow cytometry using anti-galectin-8 polyclonal antibody (generated in rabbits according to prior art protocols).
(§3) Specific binding of anti-galectin-8 was performed by the incubation of cells for 20 minutes on ice in a binding calcium buffer containing a saturating concentration of anti-galectin-8. Thereafter, a second incubation with a goat-anti-rat conjugated to fluorescein isothiocyanate (FITC) was effected. After incubation, the cells were pelleted, and analyzed in FACS analyzer (Beckton Dickinson, San Jose, Calif.). Following the initial analysis, recombinant galectin-8 (as prepared in Example 1) (1 μM) was added to both the synovial fluid cells and the PBLs to verify that recombinant galectin-8 may be detected by immunostaining with anti-galectin-8 polyclonal antibody.

[3] = system: collagen induced arthritis (CIA); assay: Collagen-induced arthritis (CIA) in DBA/1 mice, footpad thickness; assay type: in vivo; details: 100 μg per injection, IP / systemic, from disease onset every day for 11 days
Text: Animal treatment: 44 DBA/1 mice were induced with a joint inflammatory disease by two subcutaneous (s.c.) injections into the base of the tail of type II collagen three weeks apart. Joint inflammation, which appears several days after the last collagen injection, causes enhanced marked foot pad swelling, as well as swelling of other joints. The diameter of nonarthritic footpads is 1.5 to 1.7 mm. A footpad diameter of 1.9 to 2.0 mm was arbitrarily set as disease onset. […] Human galectin-8 protein and variants (100 μg per injection) as well as control injections were injected IP at disease onset and then every day for 11 days. The 44 mice were divided into 5 experimental groups as follows: Group 1 (negative control): systemic injection (starting at CIA onset) of PBS or PBS+30% glycerol (storing dilution solution of galectin proteins) (10 mice). Group 2 (positive control): systemic injection (starting at CIA onset) of anti-mouse TNFα mAb (cat. no. AMC-3012, Biosource Int. Inc. USA) adhering to the standard protocol (i.e., 100 μg antibody/mouse every day for 11 days) (6 mice). Group 3 (positive control): systemic injection of human galectin-8 protein according to the standard protocol (10 mice). Group 4: systemic injection of 100 μg per dose of human galectin-8 variant 1 according to the standard protocol (10 mice). Group 5: systemic injection of 100 μg per dose of human galectin-8 variant 2 (8 mice). The effect on footpad thickness was determined in a “blind” fashion, recording the electronic microcaliper measurements of the thickness of the joints, by picking the animals at random and recording their ears' signs following measurement. The mice were bled prior to disease induction, following disease onset and upon termination of the experiment (approximately day 11). The sera were stored and later analyzed for the presence of rheumatoid factor (RF) and cytokines. The mice were killed upon termination of the experiment and the joints removed from some of the animals for histopathological examination.

[4] = system: TNFα; assay: TNFα levels in media of LPS-supplemented human synovial tissue / cell cultures, sandwich enzyme immunoassay; assay type: cell-based; details: for decrease of TNFα levels: synovial tissue culture; for decrease of TNFα levels / TNFα levels in media: LPS 3 μg/ml, 48 hours; for TNFα levels in media: 50-2000 ng/ml
Experimental: (§4) Specimen Selection and Culture Conditions: Synovial tissues were obtained from patients undergoing total knee or hip replacement for osteoarthritis (OA). Within 2 hours of removal, synovial tissues were cut into small pieces, of a few millimeters in diameter. Synovial fibroblasts were cultured in 2 ml RPMI 1640 supplemented with 2 mM L-glutamine, 100 U/ml penicillin and 100 μg/ml streptomycin sulphate (Biological Industries).
(§5) Inflammatory cells and PBLs derived from joints of rheumatoid arthritic (RA) patients were cultured individually [RPMI-1640 (Sigma, Israel)]. The murine fibroblast line, NIH 3T3, was used as a control. The recombinant galectin-8 peptide (r-galectin-8) was added to the culture medium of the synovial fibroblasts at a concentration of 0.125 μM, 0.25 μM, 0.5 μM and 1 μM) together with lipopolysaccharide (LPS, 3 μg/ml). The recombinant galectin-8 peptide variants (r-galectin-8 variant 1 and r-galectin-8 variant 2) were added to all the culture mediums in the following concentrations: 50 ng/ml, 125 ng/ml, 250 ng/ml, 500 ng/ml, 750 ng/ml, 1 μg/ml and 2 μg/ml together with lipopolysaccharide (LPS, 3 μg/ml). Following 48 hours of incubation (37° C., 5% CO2), the measurement of IL-1β, TNF-α and IL-1ra production was performed in supernatants by quantitative sandwich enzyme immunoassay technique (R&D Systems, Inc., USA). Detection limits were 1 pg/ml to 14 pg/ml. IL-1ra production was tested with and without the addition of lipopolysaccharide (LPS, 3 μg/ml) to the culture media.

[5] = system: IL-1ra; assay: IL-1ra levels in media of LPS-supplemented human synovial tissue / cell cultures, sandwich enzyme immunoassay; assay type: cell-based; details: for increase of IL-1ra levels: synovial tissue culture, vs LPS treated control; for increase of IL-1ra levels / IL-1ra levels in media: LPS 3 μg/ml, 48 hours; for IL-1ra levels in media: 50-2000 ng/ml
Experimental: as §4, §5

[6] = system: PBLs of arthritic patients; assay: Flow cytometry of recombinant galectin-8 binding to PBLs (anti-galectin-8 immunostaining); assay type: cell-based, human; details: 1 μM added to PBLs
Experimental: as §2, §3

[7] = system: IL-1β; assay: IL-1β levels in media of LPS-supplemented human synovial tissue / cell cultures, sandwich enzyme immunoassay; assay type: cell-based; details: for decrease of IL-1β levels: synovial tissue culture; for decrease of IL-1β levels / IL-1β levels in media: LPS 3 μg/ml, 48 hours; for IL-1β levels in media: 50-2000 ng/ml
Experimental: as §4, §5

[8] = system: human fibroblasts from OA patients; assay: Apoptosis induction, annexin V/PI flow cytometry, OA fibroblasts; assay type: cell-based; details: for total cell population in the apoptotic area: 24 h, no-addition control 39.5%
Experimental: as §1

[9] = system: PBLs of arthritic patients; assay: Apoptosis induction, annexin V/PI flow cytometry, PBLs; assay type: cell-based, human; details: lowest concentration 50 ng/ml
Experimental: as §1

[10] = 0.25 μM, 0.5 μM and 1 μM, vs LPS treated control, dose dependent
[11] = 0.125 μM, vs LPS treated control
[12] = 0.25 μM, vs LPS treated control
[13] = human fibroblasts from OA patients

## COc1cccc2c1C(=O)c1c(O)c3c(c(O)c1C2=O)C[C@@](O)(C(=O)CO)C[C@@H]3O[C@H]1C[C@H](N)[C@H](O)[C@H](C)O1 [doxorubicine, reference compound]
[1]; 24 h, 150 μg/ml, positive control
  total cell population in the necrotic area: 80%

B1: galectin-8: recombinant human galectin-8 polypeptide, SEQ ID NO: 4, expressed in E. coli (protein)
chain: MLSLNNLQNIIYNPVIPYVGTIPDQLDPGTLIVICGHVPSDADRFQVDLQNGSSVKPRADVAFHFNPRFKRAGCIVCNTLINEKWGREEITYDTPFKREKSFEIVIMVLKDKFQVAVNGKHTLLYGHRIGPEKIDTLGIYGKVNIHSIGFSFSSDLQSTQASSLELTEISRENVPKSGTPQLSLPFAARLNTPMGPGRTVVVKGEVNANAKSFNVDLLAGKSKDIALHLNPRLNIKAFVRNSFLQESWGEEERNITSFPFSPGMYFEMIIYCDVREFKVAVNGVHSLEYKHRFKELSSIDTLEINGDIHLLEVRSW
[2]
  detection of added recombinant galectin-8 on cells by anti-galectin-8 immunostaining: detected
[3]
  CIA manifestations (footpad swelling): substantially reduced
[4]; [10]
  TNF-α release in the media of human synovial tissue: inhibited
[4]; [11]
  decrease of TNFα levels: approximately 2%
[4]; [12]
  decrease of TNFα levels: ~43%
[4]; 0.5 μM, vs LPS treated control
  decrease of TNFα levels: ~74%
[5]; 0.25 μM, 0.5 μM and 1 μM, vs untreated control, dose dependent
  IL-1ra production in the media of human synovial tissue: increased
[5]; 0.25 μM
  increase of IL-1ra levels: approximately 4 fold
[5]; 0.5 μM
  increase of IL-1ra levels: ~9 fold
[5]; 1 μM
  increase of IL-1ra levels: ~22 fold
[6]
  detection of added recombinant galectin-8 on cells by anti-galectin-8 immunostaining: detected
[7]; [10]
  IL-1β release in the media of human synovial tissue: inhibited
[7]; [11]
  decrease of IL-1β levels: approximately 9%
[7]; [12]
  decrease of IL-1β levels: ~42%
[7]; 0.5 μM, vs LPS treated control
  decrease of IL-1β levels: ~67%
[1]; 0.03 μM, 0.1 μM, 0.3 μM and 1 μM, dose dependent, vs serum free medium
  apoptotic effects in human synovial fluid cells: induced apoptotic effects
[1]; 24 h, 0.03 μM
  total cell population in the apoptotic area: 17%
[1]; 24 h, 0.1 μM
  total cell population in the apoptotic area: 20%
[1]; 24 h, 0.3 μM
  total cell population in the apoptotic area: 23%
[1]; 24 h, 1 μM, vs untreated control
  increase in apoptosis development: 3 fold
[1]; 24 h, 1 μM
  total cell population in the apoptotic area: 58%

B2: galectin-8 variant 2: recombinant galectin-8 variant 2 polypeptide, SEQ ID NO: 8, isoform found in synovial fluid cells of arthritic patients (protein)
chain: MMLSLNNLENIIYNPYIPYVGTIPDQLDPGTLIVICGHVPSDADRFQVDLQNGSSVKPRADVAFHFNPRFKRAGCIVCNTLINEKWGREEITYDTPFKREKSFEIVIMVLKDKFQDLQSTQASSLELTEISRENVPKSGTPQLSLPFAARLNTPMGPGRTVVVKVRSECKCQKMIIYCDVREFKVAVNGVHSLEYKHRFKELSSIDTLEINGDIHLLEVRSW
[3]
  CIA manifestations (footpad swelling): did not influence
[8]; 125 ng/ml
  total cell population in the apoptotic area: 52.2%
[8]; 250 ng/ml
  total cell population in the apoptotic area: 50.8%
[8]; 500 ng/ml
  total cell population in the apoptotic area: 62%
[8]; 750 ng/ml
  total cell population in the apoptotic area: 59%
[8]; 1000 ng/ml
  total cell population in the apoptotic area: 71.4%
[8]; 2000 ng/ml
  total cell population in the apoptotic area: 77.4%
[8]; increasing concentrations (50-2000 ng/ml)
  percentage of apoptotic cells: gradually increased
[9]
  maximal apoptotic effect: approximately 100%
[4]; PBLs from RA patients
  TNFα levels in media: significantly and dose-dependently inhibited
[4]; [13]
  TNFα levels in media: significantly and dose-dependently inhibited
[4]; synovial fluid cells (SFCs)
  TNFα levels in media: significantly and dose-dependently inhibited
[5]; PBLs of RA patients
  IL-1ra levels in media: significantly and dose-dependently increased
[5]; [13]
  IL-1ra levels in media: significantly and dose-dependently increased
[5]; synovial fluid cells (SFCs)
  IL-1ra levels in media: significantly and dose-dependently increased
[7]; PBLs from RA patients
  IL-1β levels in media: significantly and dose-dependently inhibited
[7]; [13]
  IL-1β levels in media: significantly and dose-dependently inhibited
[7]; synovial fluid cells (SFCs)
  IL-1β levels in media: significantly and dose-dependently inhibited
[1]; inflammatory cells from joints of arthritic patients, lowest concentration 50 ng/ml
  maximal apoptotic effect: approximately 100%
